In patent US20230241185A1, “COMPOSITION COMPRISING A DNA-DEGRADING ENZYME FOR USE IN A METHOD FOR THE TREATMENT OF IMMUNOSUPPRESSION AFTER ACUTE TISSUE INJURY” (Klinikum der Universität München, priority 2020, published 2023):
“Also recorded” adds a separate entry of the source.

Assays:
splenic B cells = test: Splenic B cell counts by FACS after experimental stroke; assay type: in vivo, mice; details: hrDNase 1000 U vs control; 18 h after stroke; normalized to sham
From the text: (§1) Mice were anaesthetized with isoflurane delivered in a mixture of 30% O2 and 70% N2O. An incision was made between the ear and the eye in order to expose the temporal bone. Mice were placed in supine position, and a laser Doppler probe was affixed to the skull above the middle cerebral artery (MCA) territory. The common carotid artery and left external carotid artery were exposed via midline incision and further isolated and ligated. […] Lack of brain ischemia as quantified post-mortem by histological analysis. […]
(§2) The anti-mouse antibodies listed below (see Table 1) were used for surface marker staining of CD45^+ leukocytes, CD45^+CD11b^+ monocytes (+FasL^+ expression), CD3^+ T cells, CD3^+CD4^+ Thelper cells, CD3^+CD8^+ Tcytotox cells and CD19^+ B cells (for representative gating strategy, see FIG. 10A). […] Flow cytometric data was acquired using a BD FACSverse flow cytometer (BD Biosciences) and analyzed using FlowJo software (Treestar).

FasL on BMDMs = test: BMDMs stimulated with post-stroke serum (±hrDNase), FasL expression by FACS; assay type: cell-based, mice; details: BMDMs stimulated 10 minutes with post-stroke serum ±hrDNase; FasL 10 and 60 minutes after
From the text: Control-treated BMDMs received only FBS-containing culture media. […] Stimulation by secreted factors (left), and 2. Cell-cell contact (right).

splenic CD3^+ T cells = test: Splenic T cell counts by FACS after experimental stroke; assay type: in vivo, mice; details: hrDNase 1000 U 1 hour after surgery vs vehicle; experimental stroke; normalized to sham
From the text: (§3) Mice were anaesthetized with isoflurane delivered in a mixture of 30% O2 and 70% N2O. An incision was made between the ear and the eye in order to expose the temporal bone. Mice were placed in supine position, and a laser Doppler probe was affixed to the skull above the middle cerebral artery (MCA) territory. The common carotid artery and left external carotid artery were exposed via midline incision and further isolated and ligated. A 2-mm silicon-coated filament (Doccol) was inserted into the internal carotid artery, advanced gently to the MCA until resistance was felt, and occlusion was confirmed by a corresponding decrease in blood flow (i.e., a decrease in the laser Doppler flow signal by 80%. After 60 minutes of occlusion, the animals were re-anesthetized, and the filament was removed. After recovery, the mice were kept in their home cage with ad libitum access to water and food. Sham-operated mice received the same surgical procedure, but the filament was […] in lieu of being advanced to the MCA. Body temperature was maintained at 37° C. throughout surgery in all mice via feedback-controlled heating pad. The overall mortality rate of animals subjected to MCA occlusion was approximately 20%. All animals in the sham group survived the procedure. Exclusion criteria: 1. Insufficient MCA occlusion (a reduction in blood flow to […] of the baseline value). 2. Death during the surgery. 3. Lack of brain ischemia as quantified post-mortem by histological analysis.
Anti-IL1β: Mice received two injections of antagonizing anti-IL-1β in sterile saline (clone: B122, InVivoMab, BioXcell, US), 1 hour prior to and 1 hour after surgery. Anti-IL-1β or the corresponding IgG control (Armenian hamster IgG, InVivoMab, BioXcell, US) was injected i.p. at a dose of 4 mg kg^−1 body weight in a final volume of 200 μl.
Anti-FasL: Mice received two injections of antagonizing anti-FasL in sterile saline (clone: MFL3, InVivoMab, BioXcell, US), 1 hour prior to and 1 hour after surgery. […]

[1] = system: caspase-1 activity in splenic CD11b^+ monocytes; test: FAM FLICA flow cytometry of caspase-1 activity (inflammasome activation) in splenic monocytes after stroke; assay type: in vivo, mice; details: hrDNase 1000 U 1 hour after surgery vs vehicle; experimental stroke; splenic monocytes
From the text: as §3
Human recombinant DNase (hrDNase): 1000 U of human recombinant DNase (Roche, Switzerland) dissolved in incubation 1× buffer (40 mM Tris-HCl, 10 mM NaCl, 6 mM MgCl2, 1 mM CaCl2, pH 7.9, diluted in PBS, Roche) was injected i.v. in the tail vein 1 hour after surgery in a final volume of 100 μl. The control group was administered vehicle injections at the same volume, route, and timing as experimental animals.
Caspase-8 inhibitor (Z-IETD-FMK) & Caspase-9 inhibitor (Z-LEHD-FMK): The apoptosis inhibitors Z-IETD-FMK and Z-LEHD-FMK (R&D systems, US) in DMSO dissolved in PBS and injected i.p. 30 minutes after surgery. Z-LEHD-FMK was injected at a dose of […] body weight at a final volume of 200 μl. Z-IETD-FMK was injected at a dose of 0.8 mg kg^−1 body weight at a final volume of 100 μl. The control groups were administered vehicle injections at the same volume, route, and timing as experimental animals.
To detect the active forms of caspase-1 in blood, spleen, and bone marrow samples, cell suspensions were stained with the fluorescent inhibitor probe FAM-YVAD-FMK (FAM FLICA, BioRad, Germany) for 30 minutes at 37° C. according to the manufacturer's instructions. After washing, the cells were stained for CD45^+CD3^+ T cells and CD45^+Cd11b^+ monocytes. The flow cytometry data was acquired on a BD FACSVerse (for representative gating strategy, see FIG. 10B).

cf-dsDNA = test: Cell-free dsDNA quantification in serum/plasma after stroke; assay type: in vivo, mice; details: hrDNase 1000 U vs vehicle, 6 h after stroke or sham surgery
From the text: as §1
Cell-free nucleic acids (RNA, single strand (ss) DNA and double strand (ds) DNA) levels in the plasma of mice and human patients was assessed with a Qubit 2.0 fluorometer (Invitrogen) using specific fluorescent dyes which bind either ssDNA (ssDNA Assay Kit, Thermo Fisher Scientific) or dsDNA (HS dsDNA Assay kit, Thermo Fisher Scientific). […]

IL-1β = IL-1β concentration in post-stroke serum treated ex vivo ±hrDNase; set-up: species or system mice; details: ex vivo treatment of post-stroke mouse serum ±hrDNase
Procedure: Total IL-1β and caspase-1 levels from patient plasma samples (diluted 1:10 in sterile PBS) were obtained using commercial assay kits according to the manufacturers instructions (Quantikine ELISA human IL-1β, Quantikine ELISA human caspase-1 R&D systems). Total IL-1β and IL-18 levels from murine plasma samples were measured using the Duoset ELISA IL-1β and the Duoset ELISA IL-18 kit according to the manufacturer's instructions (R&D systems).

[2] = system: FasL on CD11b^+ monocytes; test: FasL expression on splenic CD11b+ monocytes by FACS after stroke; assay type: in vivo, mice; details: hrDNase 1000 U after stroke vs control
From the text: as §1, §2

B1: hrDNase: Human recombinant DNase (Roche, Switzerland), DNA-degrading enzyme (protein, UniProt P24855 23-282, looked up)
Deoxyribonuclease-1: LKIAAFNIQTFGETKMSNATLVSYIVQILSRYDIALVQEVRDSHLTAVGKLLDNLNQDAPDTYHYVVSEPLGRNSYKERYLFVYRPDQVSAVDSYYYDDGCEPCGNDTFNREPAIVRFFSRFTEVREFAIVPLHAAPGDAVAEIDALYDVYLDVQEKWGLEDVMLMGDFNAGCSYVRPSQWSSIRLWTSPTFQWLIPDSADTTATPTHCAYDRIVVAGMLLRGAVVPDSALPFNFQAAYGLSDQLAQAISDHYPVEVMLK
splenic B cell survival (splenic B cells): improved B cell survival after experimental stroke
FasL upregulation on serum-stimulated monocytes (BMDMs) (FasL on BMDMs): completely prevented the FasL upregulation on serum-stimulated monocytes
splenic T cell counts / T cell survival (splenic CD3^+ T cells): improved T cell survival after experimental stroke; also recorded: increased splenic T cell counts
monocyte inflammasome activation (caspase-1 probe FAM-FLICA) [1]: substantially reduced inflammasome activation in splenic monocytes; also recorded: decrease cf-dsDNA concentration in plasma and inflammasome activation in monocytes; also recorded: significantly reduced monocyte inflammasome activation
serum dsDNA (cf-dsDNA) concentration (cf-dsDNA): reduction of cf-dsDNA blood concentrations; also recorded: decrease cf-dsDNA concentration in plasma; also recorded: decrease of serum dsDNA concentration in mice receiving hrDNase treatment after stroke to levels of sham-operated mice
serum dsDNA (cf-dsDNA) concentration (cf-dsDNA; listed as human recombinant DNAse): efficient degradation of cf-dsDNA
IL-1β concentration of post-stroke serum (IL-1β): IL-1β concentrations did not differ between the two stroke serum groups
IL-1β concentration of post-stroke serum (IL-1β; listed as hrDNAse): did not affect the serum concentration of IL-1β
FasL expression on monocytes / FasL+ myeloid cell population [2]: prevented the expansion of FasL+myeloid cell population; also recorded: reduced FasL expression on monocytes
